What all share (details): tags: GFP; Ni-NTA purified
Series [1] addresses T1, dFnCas9-GFP (Francisella novicida, UniProt A0Q5Y3 SEQ:272-1899).
T1 chain: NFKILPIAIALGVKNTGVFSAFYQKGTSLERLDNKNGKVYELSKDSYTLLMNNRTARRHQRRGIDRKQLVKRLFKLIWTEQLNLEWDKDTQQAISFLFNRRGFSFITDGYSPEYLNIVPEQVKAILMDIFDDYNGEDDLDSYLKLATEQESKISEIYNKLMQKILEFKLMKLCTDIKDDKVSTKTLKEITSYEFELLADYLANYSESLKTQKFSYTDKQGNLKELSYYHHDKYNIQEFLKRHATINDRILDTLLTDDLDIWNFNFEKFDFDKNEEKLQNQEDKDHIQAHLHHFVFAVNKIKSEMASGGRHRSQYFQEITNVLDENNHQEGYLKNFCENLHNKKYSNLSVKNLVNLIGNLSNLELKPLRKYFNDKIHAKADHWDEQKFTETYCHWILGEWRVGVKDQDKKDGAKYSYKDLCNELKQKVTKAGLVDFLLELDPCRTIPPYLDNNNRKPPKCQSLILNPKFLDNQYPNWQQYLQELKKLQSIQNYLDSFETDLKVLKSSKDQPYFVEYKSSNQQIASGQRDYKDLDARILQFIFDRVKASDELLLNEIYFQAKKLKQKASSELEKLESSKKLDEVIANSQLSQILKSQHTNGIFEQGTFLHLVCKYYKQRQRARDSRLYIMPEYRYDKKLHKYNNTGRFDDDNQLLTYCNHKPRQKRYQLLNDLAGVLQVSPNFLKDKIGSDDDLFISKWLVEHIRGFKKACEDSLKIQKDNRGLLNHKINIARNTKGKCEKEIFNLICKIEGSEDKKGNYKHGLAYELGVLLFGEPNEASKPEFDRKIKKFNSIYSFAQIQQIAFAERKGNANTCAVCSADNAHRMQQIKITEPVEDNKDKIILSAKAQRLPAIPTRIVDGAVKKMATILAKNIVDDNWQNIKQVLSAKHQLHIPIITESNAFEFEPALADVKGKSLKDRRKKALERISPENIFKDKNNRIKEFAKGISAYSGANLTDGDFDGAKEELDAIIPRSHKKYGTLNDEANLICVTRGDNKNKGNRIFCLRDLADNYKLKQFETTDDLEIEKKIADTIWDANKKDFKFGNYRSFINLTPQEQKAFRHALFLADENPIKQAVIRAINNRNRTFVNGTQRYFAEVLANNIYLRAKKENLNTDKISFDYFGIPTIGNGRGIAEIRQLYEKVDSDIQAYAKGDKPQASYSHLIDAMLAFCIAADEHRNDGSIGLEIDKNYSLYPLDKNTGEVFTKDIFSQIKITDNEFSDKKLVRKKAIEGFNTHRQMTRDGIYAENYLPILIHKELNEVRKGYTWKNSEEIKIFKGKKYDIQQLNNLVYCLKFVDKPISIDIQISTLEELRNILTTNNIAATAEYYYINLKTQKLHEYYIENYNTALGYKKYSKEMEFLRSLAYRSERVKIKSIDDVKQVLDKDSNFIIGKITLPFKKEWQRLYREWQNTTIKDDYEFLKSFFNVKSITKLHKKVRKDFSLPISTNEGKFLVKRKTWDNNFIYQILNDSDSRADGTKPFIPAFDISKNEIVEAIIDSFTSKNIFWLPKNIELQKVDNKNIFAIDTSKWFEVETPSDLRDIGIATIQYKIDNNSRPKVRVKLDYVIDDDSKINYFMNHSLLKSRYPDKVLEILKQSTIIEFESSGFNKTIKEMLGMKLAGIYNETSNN
Put plainly: MST; low Kd, value in figure only; 30 bp dsDNA, 10 mM MgCl2. The procedure:
(§1) MST was performed as reported previously [Dong, D. et al. The crystal structure of Cpfl in complex with CRISPR RNA. Nature (2016); Wienken, C. J., Baaske, P., Rothbauer, U., Braun, D. & Duhr, S. Protein-binding assays in biological liquids using microscale thermophoresis. Nat. Commun. (2010)]. Briefly, dFnCAS9-GFP (SEQ ID NO: 3) protein was complexed with PAGE purified respective IVT sgRNAs (purified by 12% Urea-PAGE). The binding affinities of the CAS9 proteins and sgRNA RNP complexes were calculated using Monolith NT. 115 (NanoTemper Technologies GmbH, Munich, Germany). RNP complex (Protein:sgRNA molar ratio,1:1) was reconstituted at 25° C. for 10 mins in reaction buffer (20 mM HEPES, pH7.5, 150 mM KCl, 1 mM DTT, 10 mM MgCl₂). HPLC purified 30 bp dsDNA (IDT) of different genomic loci with varying concentrations (ranging from 0.09 nM to 30,t/M) were incubated with RNP complex at 37° C. temperature for 30 min in reaction buffer. The sample was loaded into NanoTemper standard treated capillaries and measurements were performed at 25° C. using 20% LED power and 40% MST power. Data analyses were done using NanoTemper analysis software.

The target of series [2] is T1, dFnCas9-GFP. The experiment in a line: MST; SEQ ID NO 33 mismatches at 2 and 6; no binding seen. The procedure:
as §1

Series [3] has as its target T1, dFnCas9-GFP. Put plainly: MST; no binding seen. As to the method: as §1

B1: HBB WT sgRNA (FnCas9) ; HBB WT target (ssRNA ; dsDNA)
RNA: GUAACGGCAGACUUCUCCUCAGGGUUUCAGUUGCGCCGAAAGGCGCUCUGUAAUCAUUUAAAAGUAUUUUGAACGGACCUCUGUUUGACACGUCUG
DNA 1: GTAACGGCAGACTTCTCCTC
DNA 2: GAGGAGAAGTCTGCCGTTAC
B1: in series [1], the binding result is “binds”.

B2: HBB sgRNA with mismatches at PAM-proximal 2 and 6 (FnCas9) ; HBB WT target (ssRNA ; dsDNA)
RNA: GUAACGGCAGACUUAUCCACAGGGUUUCAGUUGCGCCGAAAGGCGCUCUGUAAUCAUUUAAAAGUAUUUUGAACGGACCUCUGUUUGACACGUCUG
DNA 1: GTAACGGCAGACTTCTCCTC
DNA 2: GAGGAGAAGTCTGCCGTTAC
Turning to B2, the binding result in series [2] was “no binding”.

B3: HBB WT sgRNA (FnCas9) ; HBB mismatched target 1 (ssRNA ; dsDNA)
RNA: GUAACGGCAGACUUCUCCUCAGGGUUUCAGUUGCGCCGAAAGGCGCUCUGUAAUCAUUUAAAAGUAUUUUGAACGGACCUCUGUUUGACACGUCUG
DNA 1: GAAGAAAAGTCTGCCGTTAC
DNA 2: GTAACGGCAGACTTTTCTTC
In the case of B3, in series [3], the binding result is given as “no binding”.

(Values after patent US20230031670, “METHOD AND KIT FOR DETECTION OF POLYNUCLEOTIDE” (Counci of Scientific & Industrial Research, published 2023).)
